Results from patent US7589065.

T1: Ala-Ala-Tyr-Ala-Ala
T1 chain: AAYAA

B1: trigger factor (TF) (protein)
chain: MQVSVETTQGLGRRVTITIAADSIETAVKSELVNVAKKVRIDGFRKGKVPMNIVAQRYGASVRQDVLGDLMSRNFIDAIIKEKINPAGAPTYVPGEYKLGEDFTYSVEFEVYPEVELQGLEAIEVEKPIVEVTDADVDGMLDTLRKQQATWKEKDGAVEAEDRVTIDFTGSVDGEEFEGGKASDFVLAMGQGRMIPGFEDGIKGHKAGEEFTIDVTFPEEYHAENLKGKAAKFAINLKKVEERELPELTAEFIKRFGVEDGSVEGLRAEVRKNMERELKSAIRNRVKSQAIEGLVKANDIDVPAALIDSEIDVLRRQAAQRFGGNEKQALELPRELFEEQAKRRVVVGLLLGEVIRTNELKADEERVKGLIEEMASAYEDPKEVIEFYSKNKELMDNMRNVALEEQAVEAVLAKAKVTEKETTFNELMNQQA
B2: fragment of the trigger factor (protein)
chain: RKQQATWKEKDGAVEAEDRVTIDFTGSVDGEEFEGGKASDFVLAMGQGRMIPGFEDGIKGHKAGEEFTIDVTFPEEYHAENLKGKAAKFAINLKKVEERELPELTAE
B3: Parvulin (protein)
chain: AKTAAALHILVKEEKLALDLLEQIKNGADFGKLAKKHSICPSGKRGGDLGEFRQGQMVPAFDKVVFSCPVLEPTGPLHTQFGYHIIKVLYRN

Molecular target: T1, Ala-Ala-Tyr-Ala-Ala

| Protein | relative intensity of the cross signal of the Ala-Tyr peptide bond (no addition: 3.50 ± 0.51) (relative intensity) | relative intensity of the cross signal of the Tyr-Ala peptide bond (no addition: 3.89 ± 0.32) (relative intensity) |
| --- | --- | --- |
| B1 | 3.83 | 4.42 |
| B2 | 3.96 | 3.22 |
| B3 | 2.9 | 3.11 |
